Biological target: Recombinant DnaJ-1-HA (Drosophila, UniProt Q24133 1-334)
Experiment: co-IP

Sequence of Recombinant DnaJ-1-HA (Q24133 whole entry): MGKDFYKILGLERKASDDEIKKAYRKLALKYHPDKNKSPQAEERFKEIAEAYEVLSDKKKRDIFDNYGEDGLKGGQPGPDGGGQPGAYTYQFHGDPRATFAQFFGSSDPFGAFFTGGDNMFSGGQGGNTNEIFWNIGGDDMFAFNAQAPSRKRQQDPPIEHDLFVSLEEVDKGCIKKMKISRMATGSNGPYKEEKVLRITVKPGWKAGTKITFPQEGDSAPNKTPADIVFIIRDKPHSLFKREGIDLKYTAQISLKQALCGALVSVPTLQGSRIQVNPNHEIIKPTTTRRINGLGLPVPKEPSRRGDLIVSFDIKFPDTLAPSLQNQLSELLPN

binding result: binds
B1: Recombinant His-MLF (natural protein, Drosophila, UniProt Q9NKV0-2 1-309, looked up)
chain: MSLFGALMGDFDDDLGLMNNHMNHTMNAMNMQMRSMNRLMNSFMPDPFMQVSPFDQGFQQNALMERPQMPAMPAMGLFGMPMMPNFNRLLNADIGGNSGASFCQSTVMTMSSGPDGRPQIYQASTSTKTGPGGVRETRRTVQDSRTGVKKMAIGHHIGERAHIIEKEQDMRSGQLEERQEFINLEEGEAEQFDREFTSRASRGAVQSRHHAGGMQAIMPARPAAHTSTLTIEPVEDDDDDDDDCVIQEQQPVRSSAGRHYSSAPTAPQNSIHPHPYAANPRRQQRAVKHFHTEDEAASSYKAVKRGKKK
